Results published in patent US20230122503A1, “ANTI-PSMA RADIOCONJUGATES AND USES THEREOF” (Janssen Biotech, Inc., priority 2021, published 2023).

Biological target: human prostate-specific membrane antigen (PSMA), full length, on cells (human) (UniProt Q04609)
Assay: cell-based or functional assay

Sequence of human prostate-specific membrane antigen (PSMA), full length, on cells (human) (Q04609 whole entry): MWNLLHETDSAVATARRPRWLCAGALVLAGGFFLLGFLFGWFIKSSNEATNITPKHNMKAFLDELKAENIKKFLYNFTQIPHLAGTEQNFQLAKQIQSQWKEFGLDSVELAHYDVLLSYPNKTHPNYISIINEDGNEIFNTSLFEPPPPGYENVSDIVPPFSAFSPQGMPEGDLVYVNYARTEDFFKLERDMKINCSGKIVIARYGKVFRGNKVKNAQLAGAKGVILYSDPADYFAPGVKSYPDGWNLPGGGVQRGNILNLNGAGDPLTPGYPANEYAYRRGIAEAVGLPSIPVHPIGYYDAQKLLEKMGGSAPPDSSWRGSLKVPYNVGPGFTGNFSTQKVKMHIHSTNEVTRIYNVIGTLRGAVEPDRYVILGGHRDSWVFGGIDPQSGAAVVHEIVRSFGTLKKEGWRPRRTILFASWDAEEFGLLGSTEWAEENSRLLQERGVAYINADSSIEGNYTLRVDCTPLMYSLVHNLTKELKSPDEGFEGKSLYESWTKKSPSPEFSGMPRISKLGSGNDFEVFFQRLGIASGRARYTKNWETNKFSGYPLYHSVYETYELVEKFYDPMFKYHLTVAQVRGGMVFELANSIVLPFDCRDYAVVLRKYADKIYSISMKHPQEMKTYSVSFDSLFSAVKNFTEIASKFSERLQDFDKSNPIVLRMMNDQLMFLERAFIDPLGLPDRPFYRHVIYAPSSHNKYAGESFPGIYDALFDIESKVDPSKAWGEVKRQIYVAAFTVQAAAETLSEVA

Isotype control conjugated to DX8951 (antibody)
IC50 (cytotoxicity on 22RV1 cells, DX8951 ADC, DAR 8, 6 d): 57.2 nM

Isotype control conjugated to MMAF (antibody)
IC25 (cytotoxicity on 22RV1 cells, MMAF ADC, DAR 4.3, 6 d): > 100 nM
